Data set [1] addresses T1, CTCF (UniProt P49711 P49711:1-727).
T1 sequence: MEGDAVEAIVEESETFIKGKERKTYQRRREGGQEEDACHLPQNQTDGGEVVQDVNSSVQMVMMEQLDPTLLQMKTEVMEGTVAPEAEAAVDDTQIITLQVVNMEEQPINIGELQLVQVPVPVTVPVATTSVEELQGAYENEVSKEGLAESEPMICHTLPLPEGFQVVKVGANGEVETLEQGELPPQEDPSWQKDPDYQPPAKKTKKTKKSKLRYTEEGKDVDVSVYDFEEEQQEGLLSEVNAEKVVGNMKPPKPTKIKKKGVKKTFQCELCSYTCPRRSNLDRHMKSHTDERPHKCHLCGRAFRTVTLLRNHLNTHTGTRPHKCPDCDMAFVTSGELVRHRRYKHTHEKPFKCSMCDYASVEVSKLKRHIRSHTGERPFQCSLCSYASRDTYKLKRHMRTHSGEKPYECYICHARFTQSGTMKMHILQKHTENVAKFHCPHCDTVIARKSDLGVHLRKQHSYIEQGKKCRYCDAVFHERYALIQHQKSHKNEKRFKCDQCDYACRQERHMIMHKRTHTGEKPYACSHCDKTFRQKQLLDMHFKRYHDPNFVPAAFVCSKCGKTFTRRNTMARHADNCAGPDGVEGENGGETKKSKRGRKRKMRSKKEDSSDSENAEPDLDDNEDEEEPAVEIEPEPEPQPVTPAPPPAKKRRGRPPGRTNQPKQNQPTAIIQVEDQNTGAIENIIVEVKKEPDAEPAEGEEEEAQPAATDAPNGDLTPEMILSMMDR
Nature of the data set: EMSA; 200 ng CTCF, 10 mM HEPES pH 7.3, 10 mM NaCl, 1 mM MgCl2, 5 ug tRNA, RT. The conditions noted are these: tags: Abnova H00010664-P01; label: 5' biotin on the reverse complementary strand. As for the experimental part:
(§1) All these biotin-labelled probes were incubated with 200 ng CTCF recombinant proteins (H00010664-P01, Abnova) in 20 μl 1× binding buffer (10 mM HEPES-KOH, pH 7.3, 10 mM NaCl, 1 mM MgCl₂, 1 mM DTT) with 5 μg tRNA carrier at room temperature for 30 min. The reactions were then loaded onto 6% Novex TBE gels (EC6265BOX, Thermo Fisher Scientific) and transferred to Bright Star-Plus positive charged membrane (AM10110, Thermo Fisher Scientific). Biotin-labeled probes were detected by Chemiluminescent Nucleic Acid Detection Module (89880, Thermo Fisher Scientific) using Odyssey Imaging System (LI-COR).
(§2) We next asked whether Brg1 or its associated factor could bind to Uhrt-eDNA hybrid. We first investigated the role in eDNA looping of CCCTC-binding factor (CTCF), a regulator protein essential for chromatin looping and three-dimensional structure formation. CTCF contains 11 highly conserved zinc finger domains, capable of binding to specific double-stranded DNA sequence to cause chromatin looping. We found a CTCF consensus binding motif (AGGGGGTGG; SEQ ID NO: 43) on eDNA near the conserved MEF2A and GATA4 sites. ChIP analysis of heart tissues verified CTCF was enriched on eDNA region in E13.5 hearts, whereas its occupancy on eDNA dropped by 42% in normal adult hearts, but was increased by 81% and restored to fetal levels by TAC, while CTCF protein levels remained unchanged. […]
Background: In EMSA bound probe runs differently from free probe, usually more slowly.

The target of data set [2] is T1, CTCF. Nature of the data set: EMSA; mutation disrupted CTCF binding. The settings on record: tags: Abnova H00010664-P01; label: 5' biotin. As for the experimental part:
as §1, §2

Where a chain is given by its changes, count along the chain named.

B1: eDNA CTCF site dsDNA probe (dsDNA)
DNA 1: GGTCAGCCACACAACAGAGGGGGTGGCACAGCTCTTGGGA
DNA 2: TCCCAAGAGCTGTGCCACCCCCTCTGTTGTGTGGCTGACC
On to B1, for which the binding result in the data set with CTCF [1] was “binds”.

B2: mutant CTCF site dsDNA probe (dsDNA)
DNA 1: B1 DNA 1 with G19A, G20A, G21A, G22A, G23A
DNA 2: B1 DNA 2 with C18T, C19T, C20T, C21T, C22T
Regarding B2, the binding result with CTCF [2] was “no binding”.

Values taken from US20210380977, “MYOCARDIAL ENHANCER RNA AND METHODS OF USE” (THE TRUSTEES OF INDIANA UNIVERSITY, published 2021).
